Legend:
IFNAR1 [1] = assay: IFNAR1 protein level, immunoblot / immunofluorescence, RD cells; assay type: cell-based; settings: EV71 or HSV-1 MOI 10; α2M 20 nM, LF 400 nM
IFNAR1 [2] = assay: IFNAR1 protein level, HepAD38 cells, immunoblot; assay type: cell-based; settings: siRNA or overexpression 48 h; LF 400 nM 24 h
IFNAR1 [3] = assay: IFNAR1 protein level, immunoblot, HEK-293T cells; assay type: cell-based, human; settings: HEK-293T, rLRPAP1 200 nM, α2M 20 nM, 1 h
HBV = HBV level in HepAD38 cells, immunoblot; assay type: cell-based; settings: α2M 20 nM, 24 h
DNA and RNA viruses = assay: Antiviral effect against DNA and RNA viruses (summary); assay type: cell-based; settings: dosages within the biosafety range (<1.5 mg/100 ml)
Description: Fig. 6 Inhibition of extracellular LRPAP1 reinforces the host cell’s innate immunity against multiple viruses’ infection. a–c RD cells were transfected with scramble siRNA or siLRPAP1 for 24 h. Then the cells were infected with HCoV-OC43 at an MOI of 1 for 72 h or HSV-1 at the indicated MOI for 24 h. Viral RNA level of HCoV-OC43 was analysed by RT-qPCR (a). Viral titer of HCoV-OC43 was measured by TCID50 assay (b). The relative viral DNA level of HSV-1 was analysed by RT-qPCR (c). d Immunoblots of lysates in HepAD38 cells transfected with scramble siRNA or siLRPAP1 for 48 h. e RD cells were transfected with scramble siRNA or siLRPAP1-1/-2 (si-1, si-2) for 24 h. Then the cells were infected with ZIKV at an MOI of 1 for 24 h. Viral RNA level of ZIKV was analysed by RT-qPCR. f, g The inhibitory effect of anti-LRPAP1 for HSV-1 infection. […] Densitometric analysis of VP1 levels in Fig. 6(i) was quantified and normalized with GAPDH using ImageJ (j). Densitometric analysis of HSV Envelope levels in Fig. 6(k) was quantified and normalized with GAPDH using ImageJ (l). m The schematic diagram of virus circumventing type I IFN signaling through LRPAP1.
a, The effect of siLRPAP1 on the infection of HCoV-OC43. […] Viral RNA level of HCoV-OC43 was analysed by RT-qPCR. b, RD cells were transfected with scramble siRNA or siLRPAP1 for 24 h, and cells were then inoculated with HCoV-OC43 at an MOI of 1 for 72 h. […]

HCoV-OC43 = HCoV-OC43 infection of RD cells (viral RNA, TCID50, CPE); settings: α2M 20 nM pre-treatment 1 h, MOI 1, 72 h
EV71 = EV71 infection of RD cells (viral RNA, titer, viral protein, CPE); settings: α2M 20 nM, added 3 h post infection MOI 10, 6 h
HSV-1 = HSV-1 infection of RD cells (viral DNA, TCID50, viral protein, CPE); settings: α2M 20 nM, added 3 h post infection MOI 10, 21 h

Molecule	IFNAR1 level under viral infections (IFNAR1 [1])	IFNAR1 expression in HepAD38 cells (IFNAR1 [2])	IFNAR1 level in cells treated with rLRPAP1 (IFNAR1 [3])	HBV propagation (HBc) (HBV)	antiviral effect (DNA and RNA viruses)	HCoV-OC43 propagation (HCoV-OC43)	EV71 propagation (VP1) (EV71)	HSV-1 propagation (Envelope) (HSV-1)
lactoferrin (protein, UniProt P02788 20-710, looked up) Lactotransferrin: GRRRSVQWCAVSQPEATKCFQWQRNMRKVRGPPVSCIKRDSPIQCIQAIAENRADAVTLDGGFIYEAGLAPYKLRPVAAEVYGTERQPRTHYYAVAVVKKGGSFQLNELQGLKSCHTGLRRTAGWNVPIGTLRPFLNWTGPPEPIEAAVARFFSASCVPGADKGQFPNLCRLCAGTGENKCAFSSQEPYFSYSGAFKCLRDGAGDVAFIRESTVFEDLSDEAERDEYELLCPDNTRKPVDKFKDCHLARVPSHAVVARSVNGKEDAIWNLLRQAQEKFGKDKSPKFQLFGSPSGQKDLLFKDSAIGFSRVPPRIDSGLYLGSGYFTAIQNLRKSEEEVAARRARVVWCAVGEQELRKCNQWSGLSEGSVTCSSASTTEDCIALVLKGEADAMSLDGGYVYTAGKCGLVPVLAENYKSQQSSDPDPNCVDRPVEGYLAVAVVRRSDTSLTWNSVKGKKSCHTAVDRTAGWNIPMGLLFNQTGSCKFDEYFSQSCAPGSDPRSNLCALCIGDEQGENKCVPNSNERYYGYTGAFRCLAENAGDVAFVKDVTVLQNTDGNNNEAWAKDLKLADFALLCLDGKRKPVTEARSCHLAMAPNHAVVSRMDKVERLKQVLLHQQAKFGRNGSDCPDKFCLFQSETKNLLFNDNTECLARLHGKTTYEKYLGPQYVAGITNLKKCSTSPLLEACEFLRK	but not LF	but not LF	–	–	–	–	–	–
alpha-2-macroglobulin (protein, UniProt P01023 24-1474, looked up) Alpha-2-macroglobulin: SVSGKPQYMVLVPSLLHTETTEKGCVLLSYLNETVTVSASLESVRGNRSLFTDLEAENDVLHCVAFAVPKSSSNEEVMFLTVQVKGPTQEFKKRTTVMVKNEDSLVFVQTDKSIYKPGQTVKFRVVSMDENFHPLNELIPLVYIQDPKGNRIAQWQSFQLEGGLKQFSFPLSSEPFQGSYKVVVQKKSGGRTEHPFTVEEFVLPKFEVQVTVPKIITILEEEMNVSVCGLYTYGKPVPGHVTVSICRKYSDASDCHGEDSQAFCEKFSGQLNSHGCFYQQVKTKVFQLKRKEYEMKLHTEAQIQEEGTVVELTGRQSSEITRTITKLSFVKVDSHFRQGIPFFGQVRLVDGKGVPIPNKVIFIRGNEANYYSNATTDEHGLVQFSINTTNVMGTSLTVRVNYKDRSPCYGYQWVSEEHEEAHHTAYLVFSPSKSFVHLEPMSHELPCGHTQTVQAHYILNGGTLLGLKKLSFYYLIMAKGGIVRTGTHGLLVKQEDMKGHFSISIPVKSDIAPVARLLIYAVLPTGDVIGDSAKYDVENCLANKVDLSFSPSQSLPASHAHLRVTAAPQSVCALRAVDQSVLLMKPDAELSASSVYNLLPEKDLTGFPGPLNDQDNEDCINRHNVYINGITYTPVSSTNEKDMYSFLEDMGLKAFTNSKIRKPKMCPQLQQYEMHGPEGLRVGFYESDVMGRGHARLVHVEEPHTETVRKYFPETWIWDLVVVNSAGVAEVGVTVPDTITEWKAGAFCLSEDAGLGISSTASLRAFQPFFVELTMPYSVIRGEAFTLKATVLNYLPKCIRVSVQLEASPAFLAVPVEKEQAPHCICANGRQTVSWAVTPKSLGNVNFTVSAEALESQELCGTEVPSVPEHGRKDTVIKPLLVEPEGLEKETTFNSLLCPSGGEVSEELSLKLPPNVVEESARASVSVLGDILGSAMQNTQNLLQMPYGCGEQNMVLFAPNIYVLDYLNETQQLTPEIKSKAIGYLNTGYQRQLNYKHYDGSYSTFGERYGRNQGNTWLTAFVLKTFAQARAYIFIDEAHITQALIWLSQRQKDNGCFRSSGSLLNNAIKGGVEDEVTLSAYITIALLEIPLTVTHPVVRNALFCLESAWKTAQEGDHGSHVYTKALLAYAFALAGNQDKRKEVLKSLNEEAVKKDNSVHWERPQKPKAPVGHFYEPQAPSAEVEMTSYVLLAYLTAQPAPTSEDLTSATNIVKWITKQQNAQGGFSSTQDTVVALHALSKYGAATFTRTGKAAQVTIQSSGTFSSKFQVDNNNRLLLQQVSLPELPGEYSMKVTGEGCVYLQTSLKYNILPEKEEFPFALGVQTLPQTCDEPKAHTSFQISLSVSYTGSRSASNMAIVDVKMVSGFIPLKPTVKMLERSNHVSRTEVSSNHVLIYLDKVSNQTLSLFFTVLQDVPVRDLKPAIVKVYDYYETDEFAIAEYNAPCSKDLGNA	markedly upregulated IFNAR1	–	markedly upregulated IFNAR1	significantly inhibited both DNA and RNA virus propagation	promising antiviral effects	significantly inhibited both DNA and RNA virus propagation	significantly inhibited both DNA and RNA virus propagation	significantly inhibited both DNA and RNA virus propagation

Reference: PMC10518340, “Secreted LRPAP1 binds and triggers IFNAR1 degradation to facilitate virus evasion from cellular innate immunity” (Signal Transduction and Targeted Therapy, 2023)
